Laboratory results as given in the supplement of paper PMC9170038.

Test system: MS2 coat protein
Assay: apparent KD of MS2 coat protein; higher = weaker reporter binding
Conditions: Eterna round: R107
Summary of the method: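 Each design's apparent KD comes from the median of binding-curve fits to its normalised clusters. Those clusters carried RNA switches transcribed on-chip from Illumina sequencing clusters. SNAP-549-labelled MS2 coat protein was titrated onto them in twofold steps (0.7 or 1.5 nM to 3 µM; per step 0.8–1.5 h down to 10–20 min). Conditions were 100 mM Tris-HCl pH 7.5, 80 mM KCl, 4 mM MgCl2, without or with constant ligand.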

[1] = input ligand: theophylline 20 uM
[2] = input ligand: theophylline 2 mM
[3] = input ligand: tryptophan 2.4 mM

Sequence | apparent KD of MS2 coat protein (input ligand: arginine 13.2 mM) | apparent KD of MS2 coat protein (input ligand: none) | apparent KD of MS2 coat protein [1] | apparent KD of MS2 coat protein [2] | apparent KD of MS2 coat protein [3]
GGAUAGGACAGAAGGAGCGGCAUGGCAGAAACUGCAAUCCUCCUACACGAGGAUCACCCGUGUCAGGUAGGUCGCUGUCCUAUCG [ArgXB 13 #Zipper #MS2Left #StaticStem #Blueprint] | 18.5 nM | 15.1 nM | 20.4 nM | 19 nM | 15 nM
GGGUAAGAUCCGGAUACCAGCGAACAUGAGGAUCACCCAUGUGAAAUAAGAUAGACUAAACGCCCUUGGCAGCCGAAAUAGCGUU [Same State Theophylline B GF 4] | 17.9 nM | 46.6 nM | 84.7 nM | 48.9 nM | 44.1 nM
ACAUGAGGAUCACCCAUGUAUGACUAUCCUCGAGGACCGGUACGGCCGCCACUCGAAGGAGUGGCUCGCGAGUGCGCACUUGCAA [5' end] | 9.87 nM | 12.5 nM | 16.5 nM | 13.6 nM | 11.5 nM
AGCAACAAGUCGGCCGCCACUCAUUUAACAUGAGGAUCACCCAUGUGAAUAACAUGAUUGUAAUAGAGGACCGGGACAGUUGCAU [JR_SSTryptoB_Sub014] | 62.1 nM |  | 85.5 nM | 103 nM | 
UUAUUUAUAAUGGAUACCAGUCGUAUGGCCCGGCAUCCUGACAUGAGGAUCACCCAUGUCGACCCUUGGCAGCUGUUAUGGGUUU [XTheo B #21] | 14.9 nM |  | 17 nM |  | 13.8 nM
CACAUGAGGAUCACCCAUGUCUGAACUGAAGGAGCGCUAAAUAAGGCAGGUAGGUCGCGGAAUCCCGGGUGCAUAUGCACCCGGG [9.aB] | 14.6 nM | 32 nM | 30.8 nM | 26.3 nM | 20.9 nM
UCGUCAGGCGCGGCCGCCACUGCGGUGAUGUGACAUGAGGAUCACCCAUGUUGUCAUGUGGCACAUAGGACCGGGUGCCUGGCGA [Exclusion - Tryptophan B Attempt #5 (HarryS)] | 8.16 nM | 56 nM | 44.5 nM | 114 nM | 17.6 nM
AAUGUAUGGCACAUGAGGAUCACCCAUGUGCGAGGACCGGUACGGCCGCCACUCGGUCAAGGGAUCUUACCUCUAUACAUUAAUG [XTryp A #22] | 10.6 nM |  | 14.7 nM | 11.9 nM | 
CAAGAAGUAACUGAUACCAGUGUACUGACAUGAGGAUCACCCAUGUUGGGUUUUGUUGUACACCCUUGGCAGCAGAAUCUUCUUG [AstrosExyTheB#22] | 46.9 nM |  | 74.8 nM |  | 58.1 nM
UGCCUAGACGUGGAUUACCCGUGUACCGAAGGAGCGCCCGAAAGGGCAGGUAGGUCGCGGAGGACAUGAGGAUCACCCAUGUUUG | 44.8 nM | 117 nM | 123 nM | 134 nM | 88.5 nM
GUAUUAACAAAAGUUGAUACAGUGGGUGAACGAGGACCGGUACGGCCGCCACUCGGACAUGAGGAUCACCCAUGUCCAUGUGAAA [AstrosExyTryA#12] | 15.9 nM |  | 19.2 nM | 17.2 nM | 
UCGUUUGAGUCGGCCGCCACUGGUCUCAUGGUCAACAUGAGGAUCACCCAUGUAUCUUAGUUAAACAGGACCGGGACUCGAUCGA [#17 Exclusion Tryptophan B] | 62.5 nM | 50.5 nM | 67.7 nM | 34.3 nM | 20.6 nM
CAGGCUAGGACGGCCGCCACUGUGGCUACGGUACAUGAGGAUCACCCAUGUUUGUGGUUGAUCUACAGGACCGGGUCCUGACACG [Letisoonri] | 22.2 nM |  | 134 nM | 278 nM | 
AAUGUAUGGCACAUGAGGAUCACCCAUGUGCGAGGACCGGUACGGCCGCCACUCGGUCCUGGGAUCUUAUUACUAUACAUUAAUG [XTryp A #17] | 11.8 nM |  | 15.7 nM | 12.5 nM | 
AAUCUGAUUGCGGCCGCCACUAAUUUUCCAUGAGUAUUGCAAUUACAUGAGGAUCACCCAUGUCAUAGGACCGGGCAUGACAUCU [theeternabot_sameState_MS2_Trp_B_45] | 104 nM |  | 202 nM | 309 nM | 
AAUGUAUGGCACAUGAGGAUCACCCAUGUGCGAGGACCGGUACGGCCGCCACUCGGUCCUGGGAUCUUACAACUAUACAUUAAUG [XTryp A #20] | 10.3 nM |  | 17.2 nM | 16.4 nM | 
AUGUACAUGACGGCCGCCACUACACUGAAAGUGGUCCAGAACAUGAGGAUCACCCAUGUAUCAAGUAGGACCGGGUCAUGUACAU [Tryp B Ex t5] | 178 nM |  | 425 nM | 697 nM | 
AACAUGAGGACGGAUACCAGUCACAUGAGGAUCACCCAUGUACAUGAGGAUCACCCAUGUGGCCCUUGGCAGCCGCAUGUGAUCA [Exclusion Theophylline B 4] | 124 nM |  | 308 nM |  | 412 nM
AAAUAAAUCACAUGAGGAUCACCCAUGGAUACCAGGCCUGGAAACAGCCCUUGGCAGCCACAUGAGGAUCACCCAUGUGCUAAUA [MAT - Exclusion Theophlline A - Mod of Eli - D1] | 89.8 nM |  | 194 nM |  | 152 nM
